Test results from PMC4437529.

How the values were obtained:
Experiment in all cases: purified protein
Type in all cases: biochemical, Trichomonas vaginalis
Settings in all cases: NADPH co-substrate, 100 mM potassium phosphate pH 5.5, 37 °C
[1] = system: Cc1cc2nc3c(=O)[nH]c(=O)nc-3n(C[C@H](O)[C@H](O)[C@H](O)CO)c2cc1C
[2] = system: Cc1cc2nc3c(=O)[nH]c(=O)nc-3n(C[C@H](O)[C@H](O)[C@H](O)COP(=O)(O)O)c2cc1C
[3] = system: Cc1cc2nc3c(=O)[nH]c(=O)nc-3n(C[C@H](O)[C@H](O)[C@H](O)COP(=O)(O)OP(=O)(O)OC[C@H]3O[C@@H](n4cnc5c(N)ncnc54)[C@H](O)[C@@H]3O)c2cc1C

Flavin reductase 5 (FR5) (Trichomonas vaginalis G3)
Km [1]: 94.4 ± 11.5 µM | Km [2]: 186.9 ± 30.3 µM | Km [3]: 267.4 ± 21.6 µM

Flavin reductase 1 (FR1) (Trichomonas vaginalis G3)
Km [2]: 10 ± 1.4 µM | Km [3]: 16.5 ± 2.5 µM

Flavin reductase 6 (FR6) (Trichomonas vaginalis G3)
Km [1]: 97.5 ± 28.8 µM | Km [2]: 160 ± 23.9 µM | Km [3]: 192.1 ± 12.2 µM
